Assay results reported in the supplement of paper PMC10724198.
± gives the standard deviation of the averaged measurements.

These sequences were tested on Saccharomyces cerevisiae (assay: protein stability index of tFT-peptide fusion (C-terminal peptide) (PSI (0-1 scale)); higher = more stable (slower turnover)). Conditions: genetic background: wild type; temperature: 30 C.
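Further: PSI is a weighted mean of sequencing reads over stability bins, variants kept only with over 10 reads, mCherry proximal and sfGFP distal, peptide attached via GGGS linker.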

Sequence	protein stability index
LIALLETRTWRT	0.676 ± 0.015
SEIRIQTFETGG	0.671 ± 0.061
YQCGRRVGSACD	0.645 ± 0.023
GVLPYRYRGLVL	0.64 ± 0.16
VVVCGSSVLVLT	0.555 ± 0.041
VRCRLLDVGDAS	0.642 ± 0.026
PFVSGLSGQHEQ	0.637 ± 0.011
PPTPSSPRPMAP	0.818 ± 0.14
FAPSPVPPLAPF	0.682 ± 0.053
GACSPQTNDSSR	0.709 ± 0.035
DCWAGWGLCGWG	0.748 ± 0.044
KKKRKRREKKQN	0.681 ± 0.016
LPSHAPRRPTFP	0.7403 ± 0.0056
KVIKEQNKKIDR	0.641 ± 0.026
IGLRKGVGIMRP	0.637 ± 0.12
MIKDVYIDNDNV	0.694 ± 0.02
GNGVNLEYDKRK	0.721 ± 0.059
LVWLGCGLGGLC	0.745 ± 0.054
SISSFLSLLFFR	0.639 ± 0.062
PPVLTLFMPSYS	0.7051 ± 0.0043
SLHPSPPPLLPP	0.642 ± 0.093
KEKRLKATTQYE	0.699 ± 0.015
VSTLAPPQLQFK	0.669 ± 0.081
GFSLSGRFFLRC	0.708 ± 0.013
EVGQLQPNGGWV	0.661 ± 0.033
PPALRPSPPLSP	0.698 ± 0.065

Sequence	protein stability index
SLIPSRSLGFLH	0.65 ± 0.05
GRIAGGGGGWRW	0.648 ± 0.064
PSPPLLTPLPPC	0.675 ± 0.022
GGTRCQYKNLFG	0.683 ± 0.029
RCRRTTFIELKL	0.595 ± 0.048
GHKIIPPSTRFR	0.626 ± 0.063
PPRAPFVSPFGY	0.723 ± 0.012
FPPPPPPPPPSP	0.723 ± 0.028
ELSNLRGLHTCT	0.654 ± 0.02
GEGPTGAKQDYV	0.6239 ± 0.0023
LPASPPLSGLIF	0.823 ± 0.14
YSSGILPLEMIA	0.606 ± 0.0092
GVYSVACVSGSV	0.64 ± 0.014
ACKWGVNKSTLG	0.703 ± 0.043
CVQCRRPSEWLV	0.698 ± 0.033
RLGRGRRGMRWL	0.659 ± 0.025
ILSFPYSQYFMS	0.7242 ± 0.0052
PPTRPPPALIPP	0.711 ± 0.022
GVPPFAPPPPPH	0.703 ± 0.015
LFGVRFTLGYLF	0.554 ± 0.016
PSPPSLPSCYAT	0.717 ± 0.029
KKQAVRVEIIGR	0.655 ± 0.018
FYYAERGSVERQ	0.641 ± 0.0095
SFHIAARFRSLP	0.719 ± 0.062
APLGLSFVSAVI	0.793 ± 0.087
SNNWLEKTGAMT	0.659 ± 0.03

Sequence	protein stability index
GRGVFPRRPYWV	0.724 ± 0.0086
YGGFLHALAMGG	0.677 ± 0.0014
PPNPFRHTPSIP	0.736 ± 0.027
HRTLPPPPLTVP	0.579 ± 0.027
VPSRTVTGTLPA	0.681 ± 0.026
WVWAIDYEGLLW	0.699 ± 0.054
EYRVRHSVDARS	0.6241 ± 0.0019
RINKRKKKKDKG	0.6136 ± 0.00074
PLTRPTDNNPSN	0.774 ± 0.081
LTNGQRSLCLCS	0.6537 ± 0.0048
FSVFSCLVCSLD	0.575 ± 0.011
SRLPGLELCNRI	0.675 ± 0.041
LPPTPTLPLVPP	0.7153 ± 0.0053
DDSSSFPSLLSF	0.753 ± 0.069
RPPPRPASPGSP	0.634 ± 0.039
FRAYCLPCNYHR	0.68 ± 0.052
VPYGKILQQGDI	0.658 ± 0.048
ECGGAVALSDRA	0.7672 ± 0.0018
GGGDGIHRYAGG	0.7 ± 0.035
GRRRCGGGGEVC	0.66 ± 0.064
LVGGGGGVGSLV	0.628 ± 0.042
SPLPLLRPPSSH	0.593 ± 0.047
PPPPPRPSPPHP	0.833 ± 0.022
VPPPTAPVPPRP	0.749 ± 0.096
MLFWDVGLLVFN	0.579 ± 0.049
YCNLSFKINREW	0.696 ± 0.12

Sequence	protein stability index
PGSYLDAIVYHR	0.701 ± 0.01
VGSPLSVCLSSR	0.702 ± 0.012
ARLDVFTMYKDR	0.748 ± 0.056
WENKKRMIRQKL	0.526 ± 0.016
GPGSFAPLPPRS	0.684 ± 0.033
PPSPHLPPPPAL	0.715 ± 0.016
VCHYKVSFSCLL	0.64 ± 0.044
QARQMEIRRLQT	0.628 ± 0.047
RLCPGAALAFRG	0.718 ± 0.12
FPLHPLLTSISL	0.68 ± 0.032
PRPPPSRSFPPP	0.784 ± 0.13
KQKQNKIKITTQ	0.656 ± 0.0077
PLVFFAGLFLVD	0.509 ± 0.041
TNSYRTSVRGER	0.795 ± 0.013
GGLGWGARQGAL	0.68 ± 0.024
APRTPATRPNHP	0.723 ± 0.045
TILPDYTSRILA	0.62 ± 0.012
PHGSLPTRLPGP	0.689 ± 0.035
PAPPFPPRPSPF	0.673 ± 0.056
GPPPRYLPAFPA	0.7057 ± 0.0042
SEIFTNALLISI	0.651 ± 0.026
ASKKIDIEKRGT	0.705 ± 0.14
APDPTIPYSPTP	0.717 ± 0.028
PPNHRAGSWLAR	0.655 ± 0.012
YRTPRSRHLDSP	0.6938 ± 0.0068
GGGRGGGGGGDA	0.697 ± 0.038

Sequence	protein stability index
LISNIFSFEWLW	0.622 ± 0.032
SPPPPPPPLPPA	0.731 ± 0.037
KKEKKKTKANKT	0.679 ± 0.031
SSPLPPPPFAPL	0.702 ± 0.022
ARPPPPPPSVDP	0.719 ± 0.011
VDVHWSVLCPLG	0.851 ± 0.098
KKKKKIKNKKKK	0.741 ± 0.032
PPRPPPSPPSFP	0.688 ± 0.014
LVCTLLGAASAP	0.708 ± 0.033
PPAPPPADLGPP	0.644 ± 0.093
RVGGGGGPSGVV	0.751 ± 0.029
FPLTKASSPSLL	0.672 ± 0.073
SSPIIAGFPQQK	0.676 ± 0.016
LTRKTPQKRAPQ	0.704 ± 0.013
MTRGRWAKKTAK	0.688 ± 0.038
GGEGLRGAAWGI	0.653 ± 0.12
FILSPGHFHRVL	0.688 ± 0.076
TEKWTRSSPMTR	0.764 ± 0.087
SSPESPPTPRSL	0.678 ± 0.064
HPTAILLVPLLL	0.597 ± 0.029
SLPGPRTELPLA	0.644 ± 0.034
PLLTPLCSVSHS	0.689 ± 0.0072
AGVGGCVGLGCR	0.653 ± 0.042
QASEYNREQSGL	0.6732 ± 0.00076
TMTGSGRGEKWE	0.733 ± 0.1
YFAASFMSSSGI	0.76 ± 0.078

Sequence	protein stability index
GERDWRAKRTRE	0.692 ± 0.055
PPPPPQLPQCPP	0.711 ± 0.042
CFSRCLSLLSSS	0.636 ± 0.021
WSPILEHAISDL	0.731 ± 0.017
THYFNIKCSQTK	0.665 ± 0.013
DVNTGYHFLRDL	0.6757 ± 0.0015
SVLTSYFFYLPP	0.6869 ± 0.0046
AVDPGASFPVSV	0.698 ± 0.0086
ILSRTEGHCLII	0.739 ± 0.074
TWSLLHDTQTWD	0.78 ± 0.068
GGEGGRALGVGR	0.673 ± 0.028
VTVDLGCRATGE	0.675 ± 0.067
LESSAKSRTMVL	0.721 ± 0.014
SFVECVDVMGRW	0.757 ± 0.056
PPPPAHSYHPPS	0.714 ± 0.16
PPTFRLHCPPAT	0.72 ± 0.02
GSLWGVFFRGLL	0.647 ± 0.037
SAWHRGCSCHLC	0.682 ± 0.029
RGGGCNGVSVEG	0.6899 ± 0.0027
GKSRRQGCDPRR	0.659 ± 0.035
VLTPLWIANTFL	0.673 ± 0.057
LSADVNRRLGLS	0.674 ± 0.035
SYVAERVMSRMV	0.65 ± 0.0087
ALGRTPYSGCFL	0.631 ± 0.021
FSASMSTIWQTG	0.602 ± 0.034
PPFVSPQRQRLV	0.669 ± 0.019

Sequence	protein stability index
GGAEACSDRGGG	0.704 ± 0.018
EGAQVVLVRVGV	0.547 ± 0.012
KEKKGNKTKKQN	0.657 ± 0.017
LLSLLPFGCLLL	0.536 ± 0.031
AGEGLIRMIVRP	0.694 ± 0.024
GGFTSIRLTHLS	0.698 ± 0.043
GVYNGGIPQVLQ	0.6843 ± 0.0028
PALASHLAPLDP	0.6958 ± 0.0049
SGRAGAPSVIRR	0.694 ± 0.053
CSAGLSDRGFCE	0.663 ± 0.023
SNRSAPWSRFSL	0.68 ± 0.038
ACSLGQSVLVCR	0.611 ± 0.02
VRAAAFCFVRFR	0.55 ± 0.021
AFRSISERLGGS	0.784 ± 0.018
PPLPSPASPRTP	0.721 ± 0.031
PPPVFPPLPVLS	0.598 ± 0.007
YFTARLLFFGYI	0.725 ± 0.1
KKKNEAKKKKTK	0.744 ± 0.058
VGRIGNWRFGAG	0.695 ± 0.0084
SPPLSLPPPGQS	0.671 ± 0.073
GPCRVSLSFFFF	0.577 ± 0.06
HSPSHPGSPHAC	0.7 ± 0.033
QRPGKKNGSGRP	0.682 ± 0.031
TPPPSPPQPLPP	0.642 ± 0.043
TPRRPPATPAPC	0.653 ± 0.025
FIPGGPSGFCFR	0.669 ± 0.075

Sequence	protein stability index
LDGGYGRHGVGD	0.6765 ± 0.00099
RHPSVLPLSILL	0.653 ± 0.054
GVPPTPTHPCTC	0.758 ± 0.072
YLSSTVVRSMLF	0.644 ± 0.014
PSLHSPPPPPPR	0.703 ± 0.053
SPAQLSYLFPAP	0.7928 ± 0.0039
RKKRYRRRKIKK	0.773 ± 0.025
VKVAFSIASRVD	0.79 ± 0.0028
YGRRPGSRGDEH	0.699 ± 0.025
LPRSRLAPPPCS	0.73 ± 0.015
LLPRLRHPSRGK	0.73 ± 0.15
HNKSGEKKKKEA	0.697 ± 0.0076
TLMLVTGLSTEV	0.662 ± 0.01
LRHLLAPPPRPP	0.649 ± 0.016
PLPPRPPSPPPR	0.699 ± 0.037
LVIWSFYSEGIV	0.52 ± 0.017
LSKSPRPARCSA	0.6091 ± 0.0024
KLPPATPNSRPP	0.714 ± 0.2
GLRLFWFRRVRA	0.537 ± 0.012
GSVSLLASLMCS	0.55596 ± 0.00023
